Test results: the supplement of paper PMC10567573

B1: RHOBTB2 (parent)
chain: NQEITKAFHVRRTNRVKECLAKGT
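Further: lentivirally expressed fusions sorted by FACS into six bins by GFP to DsRed ratio, PSI derived from sequencing read proportions per bin multiplied by bin number.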

Variants of: B1
Experiment: protein stability index of a GFP-peptide fusion (GPS, HEK-293T) (PSI 1-6); higher = more stable
Details: c terminus: a fixed tail appended
In the case of NQEITKALHVRRTNRVKECLAKGT, the protein stability index is reported as 3.77.
Variant NQEITKAMHVRRTNRVKECLAKGT has a protein stability index of 4.77.
NQEITKANHVRRTNRVKECLAKGT gave a protein stability index of 4.39.
NQEITKAPHVRRTNRVKECLAKGT showed a protein stability index of 4.53.
NQEITKAQHVRRTNRVKECLAKGT showed a protein stability index of 4.48.
NQEITKARHVRRTNRVKECLAKGT gave a protein stability index of 4.67.
With NQEITKASHVRRTNRVKECLAKGT the protein stability index was 4.87.
With NQEITKATHVRRTNRVKECLAKGT the protein stability index was 4.5.
In the case of NQEITKAVHVRRTNRVKECLAKGT, the protein stability index is reported as 4.46.
In the case of NQEITKAWHVRRTNRVKECLAKGT, the protein stability index is reported as 2.94.
NQEITKAYHVRRTNRVKECLAKGT gave a protein stability index of 3.37.
Work on NQEITKAFAVRRTNRVKECLAKGT yielded a protein stability index of 2.45.
For NQEITKAFCVRRTNRVKECLAKGT, the protein stability index was 2.65.
With NQEITKAFDVRRTNRVKECLAKGT the protein stability index was 4.12.
Variant NQEITKAFEVRRTNRVKECLAKGT has a protein stability index of 4.58.
Work on NQEITKAFFVRRTNRVKECLAKGT yielded a protein stability index of 2.55.
NQEITKAFGVRRTNRVKECLAKGT showed a protein stability index of 4.27.
In the case of NQEITKAFIVRRTNRVKECLAKGT, the protein stability index is reported as 3.08.
For NQEITKAFLVRRTNRVKECLAKGT, the protein stability index was 2.77.
In the case of NQEITKAFMVRRTNRVKECLAKGT, the protein stability index is reported as 2.08.
NQEITKAFNVRRTNRVKECLAKGT gave a protein stability index of 4.24.
In the case of NQEITKAFRVRRTNRVKECLAKGT, the protein stability index is reported as 2.87.
NQEITKAFSVRRTNRVKECLAKGT showed a protein stability index of 2.98.
With NQEITKAFTVRRTNRVKECLAKGT the protein stability index was 3.31.
Variant NQEITKAFVVRRTNRVKECLAKGT has a protein stability index of 2.4.
For NQEITKAFWVRRTNRVKECLAKGT, the protein stability index was 2.5.
NQEITKAFYVRRTNRVKECLAKGT gave a protein stability index of 3.2.
Work on NQEITKAFHARRTNRVKECLAKGT yielded a protein stability index of 4.09.
Work on NQEITKAFHCRRTNRVKECLAKGT yielded a protein stability index of 3.62.
NQEITKAFHDRRTNRVKECLAKGT gave a protein stability index of 4.25.
Work on NQEITKAFHERRTNRVKECLAKGT yielded a protein stability index of 4.71.
NQEITKAFHFRRTNRVKECLAKGT gave a protein stability index of 3.39.
In the case of NQEITKAFHGRRTNRVKECLAKGT, the protein stability index is reported as 3.46.
Work on NQEITKAFHHRRTNRVKECLAKGT yielded a protein stability index of 4.46.
NQEITKAFHIRRTNRVKECLAKGT gave a protein stability index of 3.25.
Variant NQEITKAFHKRRTNRVKECLAKGT has a protein stability index of 4.42.
With NQEITKAFHLRRTNRVKECLAKGT the protein stability index was 3.08.
In the case of NQEITKAFHNRRTNRVKECLAKGT, the protein stability index is reported as 3.92.
With NQEITKAFHPRRTNRVKECLAKGT the protein stability index was 4.01.
NQEITKAFHQRRTNRVKECLAKGT gave a protein stability index of 3.84.
NQEITKAFHRRRTNRVKECLAKGT gave a protein stability index of 3.91.
With NQEITKAFHTRRTNRVKECLAKGT the protein stability index was 4.3.
For NQEITKAFHWRRTNRVKECLAKGT, the protein stability index was 3.35.
Work on NQEITKAFHYRRTNRVKECLAKGT yielded a protein stability index of 3.78.
With NQEITKAFHVARTNRVKECLAKGT the protein stability index was 4.09.
With NQEITKAFHVCRTNRVKECLAKGT the protein stability index was 3.
In the case of NQEITKAFHVDRTNRVKECLAKGT, the protein stability index is reported as 4.01.
For NQEITKAFHVERTNRVKECLAKGT, the protein stability index was 4.25.
NQEITKAFHVFRTNRVKECLAKGT gave a protein stability index of 3.62.
For NQEITKAFHVGRTNRVKECLAKGT, the protein stability index was 4.05.
In the case of NQEITKAFHVHRTNRVKECLAKGT, the protein stability index is reported as 3.94.
Work on NQEITKAFHVIRTNRVKECLAKGT yielded a protein stability index of 2.43.
Variant NQEITKAFHVKRTNRVKECLAKGT has a protein stability index of 3.62.
NQEITKAFHVLRTNRVKECLAKGT showed a protein stability index of 3.21.
With NQEITKAFHVMRTNRVKECLAKGT the protein stability index was 2.81.
In the case of NQEITKAFHVNRTNRVKECLAKGT, the protein stability index is reported as 4.05.
In the case of NQEITKAFHVPRTNRVKECLAKGT, the protein stability index is reported as 4.36.
NQEITKAFHVQRTNRVKECLAKGT gave a protein stability index of 4.43.
For NQEITKAFHVSRTNRVKECLAKGT, the protein stability index was 3.99.
Variant NQEITKAFHVTRTNRVKECLAKGT has a protein stability index of 3.82.
In the case of NQEITKAFHVVRTNRVKECLAKGT, the protein stability index is reported as 2.22.
Variant NQEITKAFHVWRTNRVKECLAKGT has a protein stability index of 2.61.
With NQEITKAFHVYRTNRVKECLAKGT the protein stability index was 2.94.
For NQEITKAFHVRATNRVKECLAKGT, the protein stability index was 4.05.
With NQEITKAFHVRCTNRVKECLAKGT the protein stability index was 2.68.
In the case of NQEITKAFHVRDTNRVKECLAKGT, the protein stability index is reported as 3.78.
Variant NQEITKAFHVRETNRVKECLAKGT has a protein stability index of 4.16.
Variant NQEITKAFHVRFTNRVKECLAKGT has a protein stability index of 2.16.
NQEITKAFHVRGTNRVKECLAKGT showed a protein stability index of 4.51.
In the case of NQEITKAFHVRHTNRVKECLAKGT, the protein stability index is reported as 3.72.
In the case of NQEITKAFHVRITNRVKECLAKGT, the protein stability index is reported as 2.37.
NQEITKAFHVRKTNRVKECLAKGT gave a protein stability index of 4.31.
In the case of NQEITKAFHVRLTNRVKECLAKGT, the protein stability index is reported as 2.16.
In the case of NQEITKAFHVRMTNRVKECLAKGT, the protein stability index is reported as 3.29.
With NQEITKAFHVRNTNRVKECLAKGT the protein stability index was 3.92.
With NQEITKAFHVRPTNRVKECLAKGT the protein stability index was 3.5.
With NQEITKAFHVRQTNRVKECLAKGT the protein stability index was 3.93.
NQEITKAFHVRSTNRVKECLAKGT showed a protein stability index of 3.95.
For NQEITKAFHVRTTNRVKECLAKGT, the protein stability index was 3.69.
Variant NQEITKAFHVRVTNRVKECLAKGT has a protein stability index of 2.83.
NQEITKAFHVRWTNRVKECLAKGT showed a protein stability index of 2.38.
Variant NQEITKAFHVRYTNRVKECLAKGT has a protein stability index of 2.67.
Work on NQEITKAFHVRRANRVKECLAKGT yielded a protein stability index of 3.72.
NQEITKAFHVRRCNRVKECLAKGT gave a protein stability index of 2.78.
In the case of NQEITKAFHVRRDNRVKECLAKGT, the protein stability index is reported as 4.09.
Work on NQEITKAFHVRRENRVKECLAKGT yielded a protein stability index of 3.97.
Variant NQEITKAFHVRRGNRVKECLAKGT has a protein stability index of 2.49.
Variant NQEITKAFHVRRHNRVKECLAKGT has a protein stability index of 3.36.
NQEITKAFHVRRINRVKECLAKGT showed a protein stability index of 2.1.
Work on NQEITKAFHVRRKNRVKECLAKGT yielded a protein stability index of 2.79.
Work on NQEITKAFHVRRLNRVKECLAKGT yielded a protein stability index of 3.32.
With NQEITKAFHVRRMNRVKECLAKGT the protein stability index was 3.57.
For NQEITKAFHVRRNNRVKECLAKGT, the protein stability index was 3.54.
Variant NQEITKAFHVRRPNRVKECLAKGT has a protein stability index of 3.98.
